Assay results taken from FireProtDB (doi:10.1021/bi00231a002).
Where “and” joins values, the source holds several entries; their conditions need not be identical. Equal values may be shown once.

B1: Cytochrome c2, P00094 (parent)
chain: MKISLTAATVAALVLAAPAFAGDAAKGEKEFNKCKTCHSIIAPDGTEIVKGAKTGPNLYGVVGRTAGTYPEFKYKDSIVALGASGFAWTEEDIATYVKDPGAFLKEKLDDKKAKTGMAFKLAKGGEDVAAYLASVVK

Variants of: B1
Conditions: Rhodobacter capsulatus (strain ATCC BAA-309 / NBRC 16581 / SB1003); pH 7.5; 20 °C; GdnHCl; CD; Tris-HCl 20 mM; NaCl 40 mM; structure 1C2R; whole UniProt chain shown

Row | Variant | denaturant m value | denaturant midpoint (higher = more stable) | unfolding free energy
1 | Y96F | 2.59 kcal/mol/M and 1.43 kcal/mol/M | 1.71 M and 3.32 M | 4.42 kcal/mol and 4.75 kcal/mol
2 | Y96C | 2.57 kcal/mol/M and 1.96 kcal/mol/M | 1.44 M and 2.24 M | 3.71 kcal/mol and 4.4 kcal/mol
